Source: paper PMC2936295, “Integrative inference of gene-regulatory networks in Escherichia coli using information theoretic concepts and sequence analysis”

B1: PdhR-binding site of pdhR-aceEF-lpd operon (dsDNA)
DNA 1: GCCGAAGTCAATTGGTCTTACCAATTTCATGTCTGTG
DNA 2: CACAGACATGAAATTGGTAAGACCAATTGACTTCGGC
B2: Mlc-binding site (ptsG) (dsDNA)
DNA 1: TTGGCAAATTATTTTACTCTGTGTAATAAATAAAGGGCG
DNA 2: CGCCCTTTATTTATTACACAGAGTAAAATAATTCAGTGCCAA

Tests used:
PdhR-His [1] = molecular target: T1, PdhR-His (Escherichia coli K-12 LJ110, UniProt P0ACL9 1-254); assay: EMSA; no pyruvate; 9-37 pmol PdhR; EMSA, binding buffer and conditions as in ref 17 (not given) plus 0.1 mg/ml herring sperm DNA; 0.1 pmol probe (0.025 pmol for lipA); 6% polyacrylamide gel; pH; settings: protein: recombinant; tags: C-terminal Penta-His; chain copies: 2; label: 5' DY682 (strand 1); 5' DY782 (strand 2); blunt
PdhR-His [2] = molecular target: T1, PdhR-His; assay: EMSA; no pyruvate; 18-46 pmol PdhR; EMSA, binding buffer and conditions as in ref 17 (not given) plus 0.1 mg/ml herring sperm DNA; 0.1 pmol probe (0.025 pmol for lipA); 6% polyacrylamide gel; pH; settings: protein: recombinant; tags: C-terminal Penta-His; chain copies: 2; label: 5' DY782 (strand 1); 5' DY682 (strand 2); as printed, strand 2 has 3 extra nt (CAG opposite a gap in strand 1), possible misprint; blunt ends

T1 sequence (P0ACL9 whole entry): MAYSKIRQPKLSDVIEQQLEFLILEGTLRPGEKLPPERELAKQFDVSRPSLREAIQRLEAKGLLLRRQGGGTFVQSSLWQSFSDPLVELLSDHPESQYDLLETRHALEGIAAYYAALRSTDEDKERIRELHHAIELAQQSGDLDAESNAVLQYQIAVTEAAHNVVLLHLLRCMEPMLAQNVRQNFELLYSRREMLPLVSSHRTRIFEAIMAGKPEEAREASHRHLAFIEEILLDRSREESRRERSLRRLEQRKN

Row | Binder | binding result (PdhR-His [1]) | binding result (PdhR-His [2])
1 | B1 | binds | 
2 | B2 |  | no binding
